The text below walks through data of paper PMC8087782, “Developing Nanodisc-ID for label-free characterizations of membrane proteins” (Communications Biology, 2021).

One assay deals with T1, MalFGK2 (Escherichia coli, UniProt P68187).
T1 construct: gene malK
Conditions: APEX2-MSP1D1 nanodiscs; MalE and maltose.

Assay [1] concerns the target vesicle (v-) SNAREs reconstituted in APEX2-MSP1D1 nanodiscs (UniProt P63045). The assay can be described thus: proximity labelling; nanodisc-ID: liposomes harboring t-SNAREs incubated with APEX2-MSP1D1 nanodiscs bearing v-SNAREs, with syt1-Ca2+; PL efficiency of t-SNAREs against v-SNARE nanodisc concentration; PBS, room temp; one-site fit; apparent.
Assay [2] shares this target. Kind of assay: proximity labelling; nanodisc-ID: liposomes harboring t-SNAREs incubated with APEX2-MSP1D1 nanodiscs bearing v-SNAREs, without syt1-Ca2+; PL efficiency of t-SNAREs against v-SNARE nanodisc concentration; PBS, room temp; one-site fit; apparent.
Assay [3] has the same target. The description is as above. This is another data set of the same source.

T1 sequence (P68187 whole entry): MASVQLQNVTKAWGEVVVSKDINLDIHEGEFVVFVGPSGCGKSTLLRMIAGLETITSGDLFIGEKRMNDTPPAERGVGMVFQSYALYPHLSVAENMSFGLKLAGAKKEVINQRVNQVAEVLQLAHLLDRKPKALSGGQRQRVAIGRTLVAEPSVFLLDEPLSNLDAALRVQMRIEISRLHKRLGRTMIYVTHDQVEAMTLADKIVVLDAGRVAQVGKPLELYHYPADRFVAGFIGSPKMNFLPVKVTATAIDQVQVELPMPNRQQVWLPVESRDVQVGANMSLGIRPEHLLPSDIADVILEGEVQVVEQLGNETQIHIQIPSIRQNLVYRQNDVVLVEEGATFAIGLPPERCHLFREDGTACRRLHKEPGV
T1 sequence (P02916 whole entry, further chain): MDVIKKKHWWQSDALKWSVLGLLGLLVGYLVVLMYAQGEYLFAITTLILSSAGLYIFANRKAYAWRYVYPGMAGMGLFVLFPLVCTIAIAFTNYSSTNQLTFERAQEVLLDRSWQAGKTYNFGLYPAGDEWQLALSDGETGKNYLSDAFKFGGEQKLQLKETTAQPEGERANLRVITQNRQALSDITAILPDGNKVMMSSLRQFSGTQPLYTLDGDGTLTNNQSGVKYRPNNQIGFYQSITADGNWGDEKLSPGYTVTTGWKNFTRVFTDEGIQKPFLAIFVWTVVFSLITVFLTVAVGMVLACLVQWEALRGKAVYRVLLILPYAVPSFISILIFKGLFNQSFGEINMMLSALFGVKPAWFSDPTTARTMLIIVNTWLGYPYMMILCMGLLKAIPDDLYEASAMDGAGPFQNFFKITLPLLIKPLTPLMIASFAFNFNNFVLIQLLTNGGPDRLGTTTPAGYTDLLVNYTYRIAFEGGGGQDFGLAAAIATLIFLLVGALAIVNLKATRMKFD
T1 sequence (P68183 whole entry, further chain): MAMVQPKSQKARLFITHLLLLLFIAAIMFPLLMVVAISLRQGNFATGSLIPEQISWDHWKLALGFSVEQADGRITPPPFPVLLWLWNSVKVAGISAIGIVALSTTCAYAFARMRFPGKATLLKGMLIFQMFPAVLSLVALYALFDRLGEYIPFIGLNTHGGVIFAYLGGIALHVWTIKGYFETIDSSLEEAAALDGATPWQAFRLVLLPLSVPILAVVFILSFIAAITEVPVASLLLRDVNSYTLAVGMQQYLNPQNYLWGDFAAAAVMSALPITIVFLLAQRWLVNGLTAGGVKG

On to `Nc1ncnc2c1ncn2[C@@H]1O[C@H](COP(=O)(O)OP(=O)(O)OP(=O)(O)O)[C@@H](O)[C@H]1O` [ATP], for which, on MalFGK2, the “photo-colorimetric ATPase assay” value was “the ATPase activity of MalFGK2 was responding to the addition of MalE and maltose”.

For the compound “target (t-) membrane SNAREs embedded in liposomes (complex)”, the Kd in assay [1] turned out to be 86 nM; in assay [2] it was 2800 nM; in assay [3] it was 2600 nM.
